# Numbering of substitutions follows the chain as printed. Names and notes keep the numbering of the source.
# B1: humanized anti-PD-1 antibody BAP049-Clone-E (antibody, human IgG4 S228P, kappa)
# heavy: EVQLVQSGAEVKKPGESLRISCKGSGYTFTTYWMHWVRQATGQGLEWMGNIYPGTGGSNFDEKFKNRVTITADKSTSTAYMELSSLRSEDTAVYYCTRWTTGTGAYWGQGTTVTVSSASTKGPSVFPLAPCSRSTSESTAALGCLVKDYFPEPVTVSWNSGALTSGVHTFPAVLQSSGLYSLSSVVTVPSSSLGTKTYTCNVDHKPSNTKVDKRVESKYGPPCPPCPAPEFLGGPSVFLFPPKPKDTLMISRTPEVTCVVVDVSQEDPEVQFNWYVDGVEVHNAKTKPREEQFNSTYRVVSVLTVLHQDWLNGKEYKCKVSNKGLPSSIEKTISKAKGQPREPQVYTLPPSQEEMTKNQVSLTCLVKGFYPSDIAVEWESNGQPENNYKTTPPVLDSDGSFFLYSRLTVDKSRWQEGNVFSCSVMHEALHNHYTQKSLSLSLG
# light: EIVLTQSPATLSLSPGERATLSCKSSQSLLDSGNQKNFLTWYQQKPGQAPRLLIYWASTRESGVPSRFSGSGSGTDFTFTISSLEAEDAATYYCQNDYSYPYTFGQGTKVEIKRTVAAPSVFIFPPSDEQLKSGTASVVCLLNNFYPREAKVQWKVDNALQSGNSQESVTEQDSKDSTYSLSSTLTLSKADYEKHKVYACEVTHQGLSSPVTKSFNRGEC
# B2: humanized anti-PD-1 antibody BAP049-hum09 (antibody, human IgG4 S228P, kappa)
# heavy: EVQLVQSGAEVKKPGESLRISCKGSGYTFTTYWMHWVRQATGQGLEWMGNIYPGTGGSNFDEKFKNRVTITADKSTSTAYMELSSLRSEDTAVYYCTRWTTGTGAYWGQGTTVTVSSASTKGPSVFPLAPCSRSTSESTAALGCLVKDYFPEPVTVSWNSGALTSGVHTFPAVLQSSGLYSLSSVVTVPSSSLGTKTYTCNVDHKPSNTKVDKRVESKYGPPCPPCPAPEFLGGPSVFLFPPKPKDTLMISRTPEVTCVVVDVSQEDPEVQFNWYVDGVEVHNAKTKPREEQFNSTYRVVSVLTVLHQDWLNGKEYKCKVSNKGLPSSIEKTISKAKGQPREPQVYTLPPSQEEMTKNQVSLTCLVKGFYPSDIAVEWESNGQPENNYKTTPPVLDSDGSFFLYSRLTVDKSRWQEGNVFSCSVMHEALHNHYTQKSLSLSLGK
# light: B1 light with A9D, T10F, L11Q, L13V, S14T, G16K, R18K, A19V, L21I, S22T
# notes: Whole IgG4(S228P)/kappa; tested as concentrated supernatant of transiently transfected CHO cells; also called Clone No. 09
# B3: murine anti-PD-1 monoclonal antibody BAP049 (antibody, V domains shown)
# VH: QVQLQQSGSELVRPGASVKLSCKASGYTFTTYWMHWVRQRPGQGLEWIGNIYPGTGGSNFDEKFKNRTSLTVDTSSTTAYMHLASLTSEDSAVYYCTRWTTGTGAYWGQGTLVTVSA
# VL: DIVMTQSPSSLTVTAGEKVTMSCKSSQSLLDSGNQKNFLTWYQQKPGQPPKLLIFWASTRESGVPDRFTGSGSVTDFTLTISSVQAEDLAVYYCQNDYSYPCTFGGGTKLEIK
# notes: the murine constant regions are not; also called Mu mAb; murine mAb BAP049
# Experiments:
# [1] = target: T1, human PD-1 expressed on cells (human, UniProt Q15116 25-288); test: cell-based or functional assay
# T1 sequence (Q15116 25-288): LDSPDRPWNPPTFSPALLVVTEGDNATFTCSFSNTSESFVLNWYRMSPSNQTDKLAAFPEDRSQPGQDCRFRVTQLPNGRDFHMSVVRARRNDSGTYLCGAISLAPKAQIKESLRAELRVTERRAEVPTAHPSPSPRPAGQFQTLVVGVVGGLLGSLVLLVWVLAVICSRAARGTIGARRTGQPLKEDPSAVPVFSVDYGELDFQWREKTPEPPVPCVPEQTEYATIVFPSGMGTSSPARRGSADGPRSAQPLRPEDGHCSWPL
# [2] = target: T1, human PD-1 expressed on cells; test: FACS blocking of PD-L1-Ig binding to PD-1-expressing 300.19 cells
# [3] = target: T2, human PD-1-Ig fusion protein (human, UniProt Q15116 25-167); test: ELISA on human PD-1-Ig fusion protein
# T2 construct: not shown: Ig part of the fusion protein
# T2 sequence (Q15116 25-167): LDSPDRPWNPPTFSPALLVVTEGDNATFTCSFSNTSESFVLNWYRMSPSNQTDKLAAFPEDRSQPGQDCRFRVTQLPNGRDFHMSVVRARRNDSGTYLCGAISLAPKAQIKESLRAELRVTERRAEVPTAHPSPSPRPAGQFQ
# [4] = target: T1, human PD-1 expressed on cells; test: FACS on human PD-1 transfected Jurkat cells
# [5] = target: T3, cynomolgus PD-1 expressed on cells (cynomolgus); test: FACS on cells transfected with cynomolgus PD-1
# T3 construct: whole, on cells; also called cells transfected with cynomolgus PD-1
# [6] = target: T3, cynomolgus PD-1 expressed on cells; test: FACS on cynomolgus T cells (e.g., CD3/CD28 activated CD4 T cells)
# [7] = target: T1, human PD-1 expressed on cells; test: competition binding assay; blocks PD-L1 binding to human PD-1-expressing 300.19 cells
# [8] = target: T1, human PD-1 expressed on cells; test: competition binding assay; blocks PD-L2 binding to human PD-1-expressing 300.19 cells
binder,measurement,setting,value
B1,ex vivo EC50 for PD-1 blockade,[1],0.42 µg/mL
B2,IC50 (read off the curve),[2],~1 µg/mL
B3,Kd,[3],0.04 nM
same,Kd,[4],0.06 nM
same,Kd,[5],0.6 nM
same,Kd,[6],0.4 nM
same,IC50,[7],0.3 nM
same,IC50,[8],0.9 nM
